Substitutions are numbered along the chain they refer to. In names and notes the source's numbering stands. Values belong to the binder of their own block, whether it stands above or below them.
Tests used:
[1] = biological target: T1, TRBC2 on HPB-ALL cells engineered to express only TRBC2 (human, UniProt A0A5B9 1-178); experiment: internalisation of pHrodo red conjugated antibody, flow cytometry, 24 h
T1 construct: whole, on cells; also called HPB-ALL TRBC2; HPB-ALL TRBC2+
Description: (§1) Cell uptake of the anti-TRBC1 antibody hJOVI-1 and the anti-TRBC2 antibody KFN was tested on HPB-ALL cells that were engineered to express only TRBC1, only TRBC2, or which were the TRBC was knocked-out (KO). To this aim, the pH-sensitive fluorophore
(§2) Zenon pHrodo iFL red (Thermo Scientific), which has a 560/585 nm spectrum, was used to conjugate hJOVI-1 and KFN in IgG format following the manufacturer's recommendations. The irrelevant anti-HEL antibody was also conjugated for use as control. The conjugated antibodies were incubated with HPB-ALL TRBC1, HPB-ALL TRBC2 and HPB-ALL KO cells for 24 h at 37° C., 5% CO2. Test antibodies hJOVI-1, KFN, and anti-HEL were applied at 5 μg/ml in a 96-well plate with 5×10⁴ cells/well in 100 μl of RPMI 10% FBS. After 24 h, cells were washed, harvested and stained with 1:100 LIVE/DEAD™ Fixable Violet Dead Cell Stain (Thermofisher) for 10 min before being analysed by flow cytometry using a Fortessa flow cytometer (BD).

[2] = biological target: T2, TRBC1 (T cell receptor beta-chain constant domain 1), interaction partner protein injected in SPR (human, UniProt P01850 1-129, limits assumed); experiment: SPR (Biacore T200), antibody captured on anti-human IgG chip, TRBC1 injected, 25 C, 1:1 Langmuir fit
T2 construct: also called TCR beta constant region 1
T2 sequence (P01850 1-129 limits assumed): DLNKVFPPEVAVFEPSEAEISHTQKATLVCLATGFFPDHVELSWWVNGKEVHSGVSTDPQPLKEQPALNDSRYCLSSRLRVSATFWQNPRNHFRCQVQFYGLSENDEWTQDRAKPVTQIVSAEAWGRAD
Description: (§3) Surface plasmon resonance (SPR) was carried out on several of antibody variants of hJOVI-1 to ascertain affinity, association and dissociation rates. The sequence details of these variants Mut1 to Mut15 used in the Examples section of the present patent application are included in Tables 1 and 2. These anti-TRBC antibody variants have specificity for either TRBC1 or TRBC2.
(§4) SPR experiments were performed using a Biacore T200 instrument using HBSP1 as the running and dilution buffer (GE Healthcare BioSciences). BIAevaluation software version 2.0 (GE Healthcare) was used for data processing. For determination of the binding kinetics, mouse anti-human IgG (GE Healthcare) was covalently coupled to a CM5 Sensor Chip (GE Healthcare). Anti-TRBC1 or anti-TRBC2 antibodies were captured onto the flow cell, and various concentrations of interaction partner protein (TRBC1 or TRBC2) were injected over the flow cell at a flow rate of […] at a temperature of 25° C. A double reference subtraction was performed using buffer alone. Kinetic rate constants were obtained by curve fitting according to a 1:1 Langmuir binding model.

[3] = biological target: T3, TRBC2 (T cell receptor beta-chain constant domain 2), interaction partner protein injected in SPR (human, UniProt A0A5B9 1-129, limits assumed); experiment: SPR (Biacore T200), antibody captured on anti-human IgG chip, TRBC2 injected, 25 C, 1:1 Langmuir fit
T3 construct: the construct is not described; also called TCR beta constant region 2
T3 sequence (A0A5B9 1-129 limits assumed): as the sequence (P01850 1-129 limits assumed) above, with N3K, K4N, E9K, F36Y counted along it
Description: as §3, §4

[4] = biological target: T4, TRBC1 on HPB-ALL cells engineered to express only TRBC1 (human, UniProt P01850 1-176); experiment: internalisation of pHrodo red conjugated antibody, flow cytometry, 24 h
T4 construct: whole, on cells; also called HPB-ALL TRBC1; HPB-ALL TRBC1+
Description: as §1, §2

[5] = biological target: T4, TRBC1 on HPB-ALL cells engineered to …; experiment: internalisation (9h), pHrodo green MFI, flow cytometry
[6] = biological target: T1, TRBC2 on HPB-ALL cells engineered to …; experiment: as above
[7] = biological target: T1, TRBC2 on HPB-ALL cells engineered to …; experiment: internalisation of pHrodo green conjugated antibody, flow cytometry

Kd [2]: 90 nM
koff [2]: 0.00951 s⁻¹
kon [2]: 106000 M⁻¹ s⁻¹
B5: Mut10 (antibody, V domains shown)
VH: QVQLVQSGAEVKKPGASVKVSCKASGYTFTGYVMHWVRQAPGQGLEWMGFINPYNDDIQSNERFRGRVTMTRDTSISTAYMELSRLRSDDTAVYYCARGAGMNFDGAYRFFDFWGQGTMVTVSS
VL: DIVMTQSPLSLPVTPGEPASISCRSSQRLVHSNGNTYLHWYLQKPGQSPRLLIYRVSNRFPGVPDRFSGSGSGTDFTLKISRVEAEDVGVYYCSQSTHVPYTFGQGTKLEIK
notes: Variant of hJOVI-1; captured by anti-human IgG in SPR; also called VH Y102M

Kd [3]: 1900 nM
koff [3]: 0.0832 s⁻¹
kon [3]: 43800 M⁻¹ s⁻¹
B6: Mut15 (antibody, V domains shown)
VH: B5 VH with T28K, Y32F, A100N, M102L, N103M
VL: B5 VL with N35R
notes: Variant of hJOVI-1; IgG format; also called TRBC2 antibody Mut15; KFN variant Mut15
binding result [5]: no binding (tested: not printed on the sheet)

Kd [2]: 3590 nM
koff [2]: 0.323 s⁻¹
kon [2]: 90000 M⁻¹ s⁻¹
B7: Mut14 (antibody, V domains shown)
VH: B5 VH with T28K, Y32F, A100N, M102Y, A107S
VL: B5 VL
notes: Variant of hJOVI-1; IgG format; also called VH T28K, Y32F, A100N, A107S

Kd [2]: 28.9 nM
koff [2]: 0.00248 s⁻¹
kon [2]: 85800 M⁻¹ s⁻¹
B8: Mut9 (antibody, V domains shown)
VH: B5 VH with G26P, T28K, M102Y
VL: B5 VL
notes: Variant of hJOVI-1; captured by anti-human IgG in SPR; also called VH G26P, T28K

Kd [2]: 426 nM
koff [2]: 0.0457 s⁻¹
kon [2]: 107000 M⁻¹ s⁻¹
B10: Mut5 (antibody, V domains shown)
VH: B5 VH with Y32F, M102Y
VL: B5 VL
notes: Variant of hJOVI-1; captured by anti-human IgG in SPR; also called VH Y32F

Kd [2]: 7.69 nM
koff [2]: 0.000756 s⁻¹
kon [2]: 98300 M⁻¹ s⁻¹
B11: Mut8 (antibody, V domains shown)
VH: B5 VH with G31S, M102Y
VL: B5 VL
notes: Variant of hJOVI-1; captured by anti-human IgG in SPR; also called VH G31S

Kd [3]: 582 nM
koff [3]: 0.045 s⁻¹
kon [3]: 77600 M⁻¹ s⁻¹
B12: Mut4 (RFN) (antibody, V domains shown)
VH: B5 VH with T28R, Y32F, A100N, M102Y
VL: B5 VL
notes: Variant of hJOVI-1; captured by anti-human IgG in SPR

Kd [2]: 1000 nM
koff [2]: 0.108 s⁻¹
kon [2]: 107000 M⁻¹ s⁻¹
B14: Mut13 (antibody, V domains shown)
VH: B5 VH with T28K, Y32F, A100N, M102Y
VL: B5 VL with N35K
notes: Variant of hJOVI-1; captured by anti-human IgG in SPR; also called VH T28K, Y32F, A100N; VL N35K

More lines, now with the values behind:

B1: hJOVI-1 (humanised JOVI-1 antibody, reference antibody) (antibody, V domains shown)
VH: B5 VH with M102Y
VL: B5 VL
notes: Tested in IgG format and captured by anti-human IgG in SPR; also called aTRBC1; anti-TRBC1 antibody hJOVI-1
binding result [1]: no binding (tested: 5 µg/ml)
Kd [2]: 2.57 nM
koff [2]: 0.000618 s⁻¹
kon [2]: 238000 M⁻¹ s⁻¹

B2: Mut3 (KFN) (antibody, V domains shown)
VH: B5 VH with T28K, Y32F, A100N, M102Y
VL: B5 VL
notes: Variant of hJOVI-1; IgG format; also called anti-TRBC2 antibody KFN; anti-TRBC2 clone KFN
Kd [3]: 479 nM
koff [3]: 0.0386 s⁻¹
kon [3]: 83000 M⁻¹ s⁻¹
binding result [4]: no binding (tested: 5 µg/ml)

B3: Mut15-MMAE (antibody, V domains shown)
VH: B5 VH with T28K, Y32F, A100N, M102L, N103M
VL: B5 VL with N35R
modifications: mc-vc-PAB-MMAE conjugated to reduced inter-chain cysteines; drug-antibody ratio 3.2
notes: also called MMAE-conjugated Mut15; MMAE conjugated Mut15
binding result [5]: no binding (tested: not printed on the sheet)

B4: Mut11-MMAE (antibody, V domains shown)
VH: B5 VH with M102Y, G106A
VL: B5 VL
modifications: mc-vc-PAB-MMAE conjugated to reduced inter-chain cysteines; drug-antibody ratio 3.1
notes: also called MMAE-conjugated Mut11; MMAE conjugated Mut11
binding result [6]: no binding (tested: not printed on the sheet)

B9: Mut12 (antibody, V domains shown)
VH: B5 VH with T28K, Y32F, A100N, M102Y, N103L
VL: B5 VL with N35K
notes: Variant of hJOVI-1; captured by anti-human IgG in SPR; also called VH T28K, Y32F, A100N, N103L; VL N35K
Kd [2]: 707 nM
koff [2]: 0.0613 s⁻¹
kon [2]: 86800 M⁻¹ s⁻¹

B13: Mut11 (antibody, V domains shown)
VH: B5 VH with M102Y, G106A
VL: B5 VL
notes: Variant of hJOVI-1; IgG format; also called VH G106A; anti-TRBC1 antibody Mut11
binding result [7]: no binding
Kd [2]: 203 nM
koff [2]: 0.0177 s⁻¹
kon [2]: 87300 M⁻¹ s⁻¹

— patent US20230109275A1 (AUTOLUS, published 2023)
